Source: US20200040358A1 (published 2020)
Where a chain is given by its changes, count along the chain named.

T1: NY-ESO-1 peptide on HLA-B*07:02 (human)
T1 peptide: SLLMWITQC

T2: NY-ESO-1 peptide on HLA-A*02:01 (human (alpha3 domain mouse))
T2 peptide: SLLMWITQC

T3: NY-ESO-1 peptide on HLA-A*02:01 (human)
T3 peptide: SLLMWITQC

B1: TCR18168 (TCR, V domains shown)
Valpha: QSVAQPEDQVNVAEGNPLTVKCTYSVSGNPYLFWYVQYPNRGLQFLLKYITGDNLVKGSYGFEAEFNKSQTSFHLKKPSALVSDSALYFCAVRELYSGAGSYQLTFGKGTKLSVIP
Vbeta: QKPSRDICQRGTSLTIQCQVDSQVTMMFWYRQQPGQSLTLIATANQGSEATYESGFVIDKFPISRPNLTFSTLTVSNMSPEDSSIYLCSVGGAGVTDTQYFGPGTRLTVL
B2: TCR0060 (TCR, V domains shown)
Valpha: B1 Valpha with G98R, A99G, G100V, S101K, Y102W
Vbeta: B1 Vbeta
B3: TCR0028 (TCR, V domains shown)
Valpha: B1 Valpha with E94D, L95M, Y96A, S97N
Vbeta: B1 Vbeta
B4: TCR0014 (TCR, V domains shown)
Valpha: B1 Valpha with E94D, Y96F, S97T
Vbeta: B1 Vbeta
B5: TCR0020 (TCR, V domains shown)
Valpha: B1 Valpha with E94S, L95S, S97E, S101R
Vbeta: B1 Vbeta
B6: TCR0018 (TCR, V domains shown)
Valpha: B1 Valpha with E94D, Y96S, S97D
Vbeta: B1 Vbeta
B7: TCR0050 (TCR, V domains shown)
Valpha: B1 Valpha with G98V, G100V, S101R
Vbeta: B1 Vbeta
B8: TCR0068 (TCR, V domains shown)
Valpha: B1 Valpha with G98P, A99R, G100L, S101M, Y102W
Vbeta: B1 Vbeta
B9: TCR0066 (TCR, V domains shown)
Valpha: B1 Valpha with G98A, A99L, G100V, S101T
Vbeta: B1 Vbeta
B10: TCR0010 (TCR, V domains shown)
Valpha: B1 Valpha with E94D, L95S, Y96F, S97E
Vbeta: B1 Vbeta
B11: TCR0024 (TCR, V domains shown)
Valpha: B1 Valpha with E94D, L95Q, Y96A, S97L
Vbeta: B1 Vbeta
B12: TCR0022 (TCR, V domains shown)
Valpha: B1 Valpha with E94D, L95D, Y96L, S97V
Vbeta: B1 Vbeta
B13: TCR0032 (TCR, V domains shown)
Valpha: B1 Valpha with E94D, Y96F, S97C
Vbeta: B1 Vbeta
B14: TCR0012 (TCR, V domains shown)
Valpha: B1 Valpha with E94G, Y96L, S97N
Vbeta: B1 Vbeta
B15: TCR0070 (TCR, V domains shown)
Valpha: B1 Valpha with G98A, A99T, G100V, S101D
Vbeta: B1 Vbeta
B16: TCR0062 (TCR, V domains shown)
Valpha: B1 Valpha with G98T, A99T, G100F, S101G, Y102W
Vbeta: B1 Vbeta
B17: TCR0030 (TCR, V domains shown)
Valpha: B1 Valpha with E94D, L95S, Y96K, S97A
Vbeta: B1 Vbeta
B18: TCR0036 (TCR, V domains shown)
Valpha: B1 Valpha with E94D, Y96T, S97T
Vbeta: B1 Vbeta

Tests used:
[1] = biological target: T1, NY-ESO-1 peptide on HLA-B*07:02; assay: cytokine release
[2] = biological target: T2, NY-ESO-1 peptide on HLA-A*02:01; assay: activation reporter or marker
[3] = biological target: T3, NY-ESO-1 peptide on HLA-A*02:01; assay: multimer staining

Binder	binding result [1]	binding result [2]	binding result [3]
B1	no recognition	recognises	recognises
B2			recognises
B3			recognises
B4			recognises
B5			recognises
B6			recognises
B7			recognises
B8			recognises
B9			recognises
B10			recognises
B11			recognises
B12			recognises
B13			recognises
B14			recognises
B15			recognises
B16			recognises
B17			recognises
B18			recognises
